Source: article PMC7705670, “Structural and functional characterization of M. tuberculosis sedoheptulose- 7-phosphate isomerase, a critical enzyme involved in lipopolysaccharide biosynthetic pathway” (Scientific Reports, 2020)

T1: M. tuberculosis HddA enzyme (MtbHddA) (M. tuberculosis, UniProt O53637 1-386)
T1 sequence: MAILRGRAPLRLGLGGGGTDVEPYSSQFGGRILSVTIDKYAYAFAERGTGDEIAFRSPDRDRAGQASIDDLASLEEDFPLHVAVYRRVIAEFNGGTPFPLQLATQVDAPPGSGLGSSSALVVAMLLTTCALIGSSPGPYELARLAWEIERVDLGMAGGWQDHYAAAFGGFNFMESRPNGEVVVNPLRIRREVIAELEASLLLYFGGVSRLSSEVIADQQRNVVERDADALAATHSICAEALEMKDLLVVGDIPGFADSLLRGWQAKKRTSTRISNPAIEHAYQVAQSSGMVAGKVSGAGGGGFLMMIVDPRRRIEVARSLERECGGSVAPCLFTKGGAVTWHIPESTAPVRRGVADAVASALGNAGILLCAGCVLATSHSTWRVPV

B1: M. tuberculosis sedoheptulose-7-phosphate isomerase (MtbGmhA), wild type (enzyme)
chain: MCTARTAEEIFVETIAVKTRILNDRVLLEAARAIGDRLIAGYRAGARVFMCGNGGSAADAQHFAAELTGHLIFDRPPLGAEALHANSSHLTAVANDYDYDTVFARALEGSARPGDTLFAISTSGNSMSVLRAAKTARELGVTVVAMTGESGGQLAEFADFLINVPSRDTGRIQESHIVFIHAISEHVEHALFAPRQ
notes: also called Rv0113; not shown: His6, N-terminal, kept
B2: M. tuberculosis GmhB enzyme (MtbGmhB) (enzyme)
chain: MVAERAGHQWCLFLDRDGVINRQVVGDYVRNWRQFEWLPGAARALKKLRAWAPYIVVVTNQQGVGAGLMSAVDVMVIHRHLQMQLASDGVLIDGFQVCPHHRSQRCGCRKPRPGLVLDWLGRHPDSEPLLSIVVGDSLSDLELAHNVAAAAGACASVQIGGASSGGVADASFDSLWEFAVAVGHARGERG

Tests used:
[1] = biological target: the molecule itself; assay: SEC
[2] = biological target: T1, M. tuberculosis HddA enzyme (MtbHddA); assay: SPR; MtbGmhA immobilised (legend of Figure 4) on a gold surface activated by EDC-NHS; 25 °C; steady-state fit, Langmuir 1:1 model; conditions: both partners purified
[3] = biological target: T1, M. tuberculosis HddA enzyme (MtbHddA); assay: SPR; conditions: both partners purified
[4] = biological target: B1; assay: SPR; MtbGmhA immobilised (legend of Figure 4) on a gold surface activated by EDC-NHS; 25 °C; steady-state fit, Langmuir 1:1 model; conditions: both partners purified

Question: How did the “stoichiometry N” value [1] turn out when B1 was run?
Answer: The value was 4.

Question: What about the Kd [2] of the same binder?
Answer: The Kd was 8.45 ± 0.45 µM.

Question: For B2, which Kd [3] is on record?
Answer: Its Kd is 20 ± 0.95 µM.

Question: And the Kd [4]?
Answer: Its Kd is 4.9 ± 0.11 µM.
